According to US8247535B2, “Directed evolution of GRG31 EPSP synthase enzyme” (Athenix Corp., priority 2008, dated 2012):

What was measured:
Type in all cases: biochemical
[1] = system: GRG31 EPSP synthase; assay: Extract prescreens of library clones at a few glyphosate and PEP concentrations; settings: for activity in glyphosate prescreen: 0, 1, and 2 mM glyphosate, among 31 resistant clones; for combination of glyphosate resistance and activity at low PEP concentrations: library 3, 0 and 0.2 mM glyphosate, 0, 20, and 50 μM PEP
Description: Library 1 was cloned into pAX3625 and 130,000 clones were plated onto plates containing 50 mM glyphosate. […] Extracts were prepared and assessed for glyphosate resistance by assaying activity in the presence of a small number of glyphosate concentrations (0, 1, and 2 mM glyphosate).
Extracts from these six clones were assayed for activity at a range of PEP concentrations (0, 20, 50, and 100 μM PEP).
One hundred and fifteen thousand (115,000) clones were plated onto plates containing 50 mM glyphosate and 384 glyphosate resistant clones were picked for sequencing. […] A Ki assessment of the unique clones was carried out by testing activity at 0 and 0.2 mM glyphosate. […] An assessment of the Km of protein encoded by these nine clones was performed by comparing activity at 0, 20, and 50 μM PEP.

[2] = target: GRG31 EPSP synthase; assay: Kinetic analysis of GRG31 variants (Ki for glyphosate, Km for PEP, Vmax); set-up: Vmax: unit not given here; settings: for Ki: Ki for glyphosate, calculated from plot of Km(app) vs. glyphosate concentration; for Km: Km for PEP; for Vmax: unit not given
Description: GRG31 variants L3P2b11, L3P2c11 and L4e11, and L5e3 were characterized by enzymatic assays as described herein, and compared to the native GRG31 enzyme. For each enzyme the apparent Km (Km(app)) was determined at each of several glyphosate concentrations, and a plot of Km(app) vs. glyphosate concentration was used to calculate the Ki for each enzyme. The thermostability for each enzyme was assessed by incubating the enzyme at 37° C. for 16 hours, and then quantifying the enzymatic activity remaining (as Vmax) vs. control enzyme that was incubated at 4° C.

[3] = system: GRG31 EPSP synthase; settings: for thermostability at 37° C. compared with GRG31: survival of activity at 37° C., in words
Description: The thermostability of several variants of GRG31 was analyzed by measuring survival of activity at 37° C.

B1: GRG31pm3b8: GRG31 variant I75→C; P77→N; M82→T, SEQ ID NO:10 (protein)
chain: MNQQVITLTHPSKKIQGTVQLTGSKSESNRALIIQSLSKGQVEIANLSEAADTVTLNRVLQIASDPKPGFNTIDCGNAGTATRFLTAYLNLVKGNFILTGTERMQQRPIGILVDAMKEIGADIHYDKKVGYPPLKIEGGLFQEKDRVKIKGNISSQYISALLLIAPALKKGLTLEIEGELTSRPYVSMTLDMLKSVGIQHEWKNNAIKIAPQAFEKQTIYVEPDWSAASYWYAIAALADANASIVLPGLRKNSLQGDIAIISIMEHFGVQSSFESDGLHLNKKVIGSDVSLFNFKECPDLAQTVVVVAAALKRDVSFTGLETLKIKETDRIAALQKEIAKFGAELIEDGDTYHLKTAQVYQPEEVTFDTYEDHRMAMAFAPLALVFDQIKIAEPQVVEKSYPDFWNHLQAQAFVIE
modifications: GRG31 variant (clone GRG31pm3b8)
- activity in glyphosate prescreen ([1]; extracts): best activity
- activity at low PEP concentrations ([1]; extracts, 0, 20, 50, and 100 μM PEP, among six clones): best activity at low PEP concentrations
- Ki [2]: 116 µM

B2: L5e3: GRG31 variant P77→T, SEQ ID NO:17 (protein)
chain: MNQQVITLTHPSKKIQGTVQLTGSKSESNRALIIQSLSKGQVEIANLSEAADTVTLNRVLQIASDPKPGFNTIDIGTAGTAMRFLTAYLNLVKGNFILTGTERMQQRPIGILVDAMKEIGADIHYDKKVGYPPLKIEGGLFQEKDRVKIKGNISSQYISALLLIAPALKKGLTLEIEGELTSRPYVSMTLDMLKSVGIQHEWKNNAIKIAPQAFEKQTIYVEPDWSAASYWYAIAALADANASIVLPGLRKNSLQGDIAIISIMEHFGVQSSFESDGLHLNKKVIGSDVSLFNFKECPDLAQTVVVVAAALKRDVSFTGLETLKIKETDRIAALQKEIAKFGAELIEDGDTYHLKTAQVYQPEEVTFDTYEDHRMAMAFAPLALVFDQIKIAEPQVVEKSYPDFWNHLQAQAFVIE
modifications: GRG31 variant (clone L5e3)
- t1/2 at 37° C. [3]: 10.8 h
- thermostability at 37° C. compared with GRG31 [3]: improved thermostability
- Ki [2]: 507 µM
- Km [2]: 11.4 µM
- Vmax [2]: 3.6

B3: GRG31pm3d3: GRG31 Q-loop library 1 variant, SEQ ID NO:12 (protein)
chain: MNQQVITLTHPSKKIQGTVQLTGSKSESNRALIIQSLSKGQVEIANLSEAADTVTLNRVLQIASDPKPGFNTIDCDAAGTATRFLTAFLNLVKGNFILTGTERMQQRPIGILVDAMKEIGADIHYDKKVGYPPLKIEGGLFQEKDRVKIKGNISSQYISALLLIAPALKKGLTLEIEGELTSRPYVSMTLDMLKSVGIQHEWKNNAIKIAPQAFEKQTIYVEPDWSAASYWYAIAALADANASIVLPGLRKNSLQGDIAIISIMEHFGVQSSFESDGLHLNKKVIGSDVSLFNFKECPDLAQTVVVVAAALKRDVSFTGLETLKIKETDRIAALQKEIAKFGAELIEDGDTYHLKTAQVYQPEEVTFDTYEDHRMAMAFAPLALVFDQIKIAEPQVVEKSYPDFWNHLQAQAFVIE
modifications: GRG31 variant (clone GRG31pm3b3)
- activity in glyphosate prescreen ([1]; extracts): best activity

B4: L3P2c11 + 6b2: GRG31 variant Y88→F; N95→S, A206→V, SEQ ID NO:25 (protein)
chain: MNQQVITLTHPSKKIQGTVQLTGSKSESNRALIIQSLSKGQVEIANLSEAADTVTLNRVLQIASDPKPGFNTIDIGPAGTAMRFLTAFLNLVKGSFILTGTERMQQRPIGILVDAMKEIGADIHYDKKVGYPPLKIEGGLFQEKDRVKIKGNISSQYISALLLIAPALKKGLTLEIEGELTSRPYVSMTLDMLKSVGIQHEWKNNVIKIAPQAFEKQTIYVEPDWSAASYWYAIAALADANASIVLPGLRKNSLQGDIAIISIMEHFGVQSSFESDGLHLNKKVIGSDVSLFNFKECPDLAQTVVVVAAALKRDVSFTGLETLKIKETDRIAALQKEIAKFGAELIEDGDTYHLKTAQVYQPEEVTFDTYEDHRMAMAFAPLALVFDQIKIAEPQVVEKSYPDFWNHLQAQAFVIE
modifications: GRG31 variant (L3P2c11+6b2)
- t1/2 at 37° C. [3]: 3.5 h
- thermostability at 37° C. compared with GRG31 [3]: improved thermostability
- Ki [2]: 405 µM
- Km [2]: 7.9 µM
- Vmax improvement over the GRG31(L3P2c11) protein ([2]; relative to GRG31(L3P2c11), in words): about four to five-fold
- Vmax relative to GRG31 ([2]; relative to GRG31, in words): approximately equal to that of GRG31
- improvement in Ki for glyphosate relative to GRG31 ([2]; relative to GRG31, in words): more than four-fold
- improvement in Km for PEP relative to GRG31 ([2]; relative to GRG31, in words): approximately two-fold
- Vmax [2]: 23.4

B5: L3P2c11: GRG31 variant Y88→F, SEQ ID NO:14 (protein)
chain: MNQQVITLTHPSKKIQGTVQLTGSKSESNRALIIQSLSKGQVEIANLSEAADTVTLNRVLQIASDPKPGFNTIDIGPAGTAMRFLTAFLNLVKGNFILTGTERMQQRPIGILVDAMKEIGADIHYDKKVGYPPLKIEGGLFQEKDRVKIKGNISSQYISALLLIAPALKKGLTLEIEGELTSRPYVSMTLDMLKSVGIQHEWKNNAIKIAPQAFEKQTIYVEPDWSAASYWYAIAALADANASIVLPGLRKNSLQGDIAIISIMEHFGVQSSFESDGLHLNKKVIGSDVSLFNFKECPDLAQTVVVVAAALKRDVSFTGLETLKIKETDRIAALQKEIAKFGAELIEDGDTYHLKTAQVYQPEEVTFDTYEDHRMAMAFAPLALVFDQIKIAEPQVVEKSYPDFWNHLQAQAFVIE
modifications: GRG31 variant (clone L3P2c11)
- combination of glyphosate resistance and activity at low PEP concentrations [1]: best combination of glyphosate resistance and activity at low PEP concentrations
- Ki [2]: 715 µM
- Km [2]: 39.6 µM
- improvement in Ki for glyphosate relative to GRG31 ([2]; relative to GRG31, in words): improved
- Vmax [2]: 5.3

B6: L3P2b11: GRG31 variant P77→Q; A81→S; M82→L; Y88→F, SEQ ID NO:13 (protein)
chain: MNQQVITLTHPSKKIQGTVQLTGSKSESNRALIIQSLSKGQVEIANLSEAADTVTLNRVLQIASDPKPGFNTIDIGQAGTSLRFLTAFLNLVKGNFILTGTERMQQRPIGILVDAMKEIGADIHYDKKVGYPPLKIEGGLFQEKDRVKIKGNISSQYISALLLIAPALKKGLTLEIEGELTSRPYVSMTLDMLKSVGIQHEWKNNAIKIAPQAFEKQTIYVEPDWSAASYWYAIAALADANASIVLPGLRKNSLQGDIAIISIMEHFGVQSSFESDGLHLNKKVIGSDVSLFNFKECPDLAQTVVVVAAALKRDVSFTGLETLKIKETDRIAALQKEIAKFGAELIEDGDTYHLKTAQVYQPEEVTFDTYEDHRMAMAFAPLALVFDQIKIAEPQVVEKSYPDFWNHLQAQAFVIE
modifications: GRG31 variant (clone L3P2b11)
- combination of glyphosate resistance and activity at low PEP concentrations [1]: best combination of glyphosate resistance and activity at low PEP concentrations
- Ki [2]: 983 µM
- Km [2]: 11 µM
- improvement in Ki for glyphosate relative to GRG31 ([2]; relative to GRG31, in words): improved
- Vmax [2]: 5.7

B7: L3P2c11 + triple EK: GRG31 variant Y88→F; N95→S, A206→V; E215→K, SEQ ID NO:23 (protein)
chain: MNQQVITLTHPSKKIQGTVQLTGSKSESNRALIIQSLSKGQVEIANLSEAADTVTLNRVLQIASDPKPGFNTIDIGPAGTAMRFLTAFLNLVKGSFILTGTERMQQRPIGILVDAMKEIGADIHYDKKVGYPPLKIEGGLFQEKDRVKIKGNISSQYISALLLIAPALKKGLTLEIEGELTSRPYVSMTLDMLKSVGIQHEWKNNVIKIAPQAFKKQTIYVEPDWSAASYWYAIAALADANASIVLPGLRKNSLQGDIAIISIMEHFGVQSSFESDGLHLNKKVIGSDVSLFNFKECPDLAQTVVVVAAALKRDVSFTGLETLKIKETDRIAALQKEIAKFGAELIEDGDTYHLKTAQVYQPEEVTFDTYEDHRMAMAFAPLALVFDQIKIAEPQVVEKSYPDFWNHLQAQAFVIE
modifications: GRG31 variant (L3P2c11+triple EK)
- t1/2 at 37° C. [3]: 2.7 h
- thermostability at 37° C. compared with GRG31 [3]: thermostability equivalent to GRG31
- Ki [2]: 298 µM
- Km [2]: 12.6 µM
- Vmax [2]: 14.4
